In paper doi:10.1101/2023.04.24.538075 (bioRxiv, 2023):

Target: T1, Cdc24-H (S. cerevisiae, UniProt P11433 1-854)
T1 sequence: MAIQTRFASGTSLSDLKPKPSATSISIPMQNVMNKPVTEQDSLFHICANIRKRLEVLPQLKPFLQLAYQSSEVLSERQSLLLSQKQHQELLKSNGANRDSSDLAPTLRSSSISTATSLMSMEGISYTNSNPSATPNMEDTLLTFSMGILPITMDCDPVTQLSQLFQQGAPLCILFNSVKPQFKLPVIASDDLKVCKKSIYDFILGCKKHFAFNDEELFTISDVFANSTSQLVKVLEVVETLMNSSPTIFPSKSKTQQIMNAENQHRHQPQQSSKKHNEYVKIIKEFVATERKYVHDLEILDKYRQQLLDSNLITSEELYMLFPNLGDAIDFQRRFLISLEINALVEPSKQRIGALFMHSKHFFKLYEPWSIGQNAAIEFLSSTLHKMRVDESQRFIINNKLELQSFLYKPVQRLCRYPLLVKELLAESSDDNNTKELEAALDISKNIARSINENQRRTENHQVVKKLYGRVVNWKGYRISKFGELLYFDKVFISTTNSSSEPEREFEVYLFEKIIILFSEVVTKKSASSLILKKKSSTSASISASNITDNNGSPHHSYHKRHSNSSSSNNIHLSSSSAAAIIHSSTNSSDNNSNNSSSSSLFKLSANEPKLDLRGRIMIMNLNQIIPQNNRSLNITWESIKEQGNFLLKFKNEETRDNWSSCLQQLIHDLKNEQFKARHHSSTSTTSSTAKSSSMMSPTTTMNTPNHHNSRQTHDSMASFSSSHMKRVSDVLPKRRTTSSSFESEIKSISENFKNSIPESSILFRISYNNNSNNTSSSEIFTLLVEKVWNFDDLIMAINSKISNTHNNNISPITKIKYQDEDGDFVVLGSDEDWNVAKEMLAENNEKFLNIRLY
Assay: pull-down

B1: H-Bem1-F (natural protein)
chain: MLKNFKLSKRDSNGSKGRITSADISTPSHDNGSVIKHIKTVPVRYLSSSSTPVKSQRDSSPKNRHNSKDITSPEKVIKAKYSYQAQTSKELSFMEGEFFYVSGDEKDWYKASNPSTGKEGVVPKTYFEVFDRTKPSSVNGSNSSSRKVTNDSLNMGSLYAIVLYDFKAEKADELTTYVGENLFICAHHNCEWFIAKPIGRLGGPGLVPVGFVSIIDIATGYATGNDVIEDIKSVNLPTVQEWKSNIARYKASNISLGSVEQQQQQSITKPQNKSAKLVDGELLVKASVESFGLEDEKYWFLVCCELSNGKTRQLKRYYQDFYDLQVQLLDAFPAEAGKLRDAGGQWSKRIMPYIPGPVPYVTNSITKKRKEDLNIYVADLVNLPDYISRSEMVHSLFVVLNNGFDREFERDENQNNIKTLQENDTATFATASQTSNFASTNQDNTLTGEDLKLNKKLSDLSLSGSKQAPAQSTSGLKTTKIKFYYKDDIFALMLKGDTTYKELRSKIAPRIDTDNFKLQTKLFDGSGEEIKTDSQVSNIIQAKLKISVHDI
binding result: binds
